Data published in PMC10397247.
One block for each binder: values may come before it.

Legend:
[1] = biological target: T1, P11; assay: two-hybrid library CC1;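 also: natural log of median RNA to DNA barcode read ratio; higher means stronger binding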
T1 chain: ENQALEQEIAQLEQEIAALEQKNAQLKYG

[2] = biological target: T2, P12; assay: two-hybrid library CC1; settings: mean of both orientations;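 also: natural log of median RNA to DNA barcode read ratio; higher means stronger binding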
T2 chain: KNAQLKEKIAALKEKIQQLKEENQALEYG

[3] = biological target: T3, P3; assay: two-hybrid library CC1; settings: mean of both orientations;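 also: natural log of median RNA to DNA barcode read ratio; higher means stronger binding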
T3 chain: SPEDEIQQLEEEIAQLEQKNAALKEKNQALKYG

[4] = biological target: T4, P3mS; assay: two-hybrid library CC1; settings: mean of both orientations;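 also: natural log of median RNA to DNA barcode read ratio; higher means stronger binding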
T4 chain: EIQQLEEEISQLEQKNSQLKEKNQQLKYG

[5] = biological target: T5, P4; assay: two-hybrid library CC1; settings: mean of both orientations;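 also: natural log of median RNA to DNA barcode read ratio; higher means stronger binding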
T5 chain: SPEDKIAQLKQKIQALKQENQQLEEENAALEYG

[6] = biological target: T6, P4mS; assay: two-hybrid library CC1; settings: mean of both orientations;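 also: natural log of median RNA to DNA barcode read ratio; higher means stronger binding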
T6 chain: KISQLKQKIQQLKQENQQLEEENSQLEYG

[7] = biological target: T7, P5SC1; assay: two-hybrid library CC1; settings: mean of both orientations
T7 chain: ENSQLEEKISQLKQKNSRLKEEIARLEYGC

[8] = biological target: T8, P5SC2; assay: two-hybrid library CC1; settings: mean of both orientations
T8 chain: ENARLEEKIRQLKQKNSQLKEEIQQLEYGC

[9] = biological target: T9, P5; assay: two-hybrid library CC1; settings: mean of both orientations
T9 chain: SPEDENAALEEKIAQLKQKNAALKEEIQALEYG

[10] = biological target: T10, P5mS; assay: two-hybrid library CC1; settings: mean of both orientations
T10 chain: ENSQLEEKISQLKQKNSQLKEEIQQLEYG

[11] = biological target: T11, P6SC1; assay: two-hybrid library CC1; settings: mean of both orientations
T11 chain: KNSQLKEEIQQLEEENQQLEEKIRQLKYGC

[12] = biological target: T12, P6SC2; assay: two-hybrid library CC1; settings: mean of both orientations
T12 chain: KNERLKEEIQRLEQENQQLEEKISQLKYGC

[13] = biological target: T13, P6; assay: two-hybrid library CC1; settings: mean of both orientations
T13 chain: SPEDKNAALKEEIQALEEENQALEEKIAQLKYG

[14] = biological target: T14, P6mS; assay: two-hybrid library CC1; settings: mean of both orientations
T14 chain: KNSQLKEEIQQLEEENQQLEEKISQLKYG

[15] = biological target: T15, P7; assay: two-hybrid library CC1; settings: mean of both orientations
T15 chain: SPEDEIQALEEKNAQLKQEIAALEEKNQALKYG

[16] = biological target: T16, P7mS; assay: two-hybrid library CC1; settings: mean of both orientations
T16 chain: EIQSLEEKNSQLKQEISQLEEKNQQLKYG

[17] = biological target: T17, P8; assay: two-hybrid library CC1; settings: mean of both orientations
T17 chain: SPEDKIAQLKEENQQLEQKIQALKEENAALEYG

[18] = biological target: T18, P8mS; assay: two-hybrid library CC1; settings: mean of both orientations
T18 chain: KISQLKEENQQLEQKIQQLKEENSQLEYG

[19] = biological target: T19, P9; assay: two-hybrid library CC1; settings: mean of both orientations
T19 chain: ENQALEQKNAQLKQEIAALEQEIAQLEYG

[20] = biological target: T20, 4H2696-bA; assay: two-hybrid library CCNG1
T20 chain: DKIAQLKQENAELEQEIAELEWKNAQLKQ

[21] = biological target: T21, 4H2883-bA; assay: two-hybrid library CCNG1
T21 chain: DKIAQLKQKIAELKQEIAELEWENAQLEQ

[22] = biological target: T22, 4H2937-bA; assay: two-hybrid library CCNG1
T22 chain: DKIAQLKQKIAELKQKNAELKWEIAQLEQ

[23] = biological target: T23, 4H2944-bA; assay: two-hybrid library CCNG1
T23 chain: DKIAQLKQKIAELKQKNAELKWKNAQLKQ

[24] = biological target: T24, 4H342-bA; assay: two-hybrid library CCNG1
T24 chain: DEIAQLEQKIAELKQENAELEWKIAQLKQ

[25] = biological target: T25, 4H48-bA; assay: two-hybrid library CCNG1
T25 chain: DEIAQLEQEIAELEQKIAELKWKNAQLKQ

[26] = biological target: T26, 4H491-bA; assay: two-hybrid library CCNG1
T26 chain: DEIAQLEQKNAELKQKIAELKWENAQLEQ

Binder: ENQALEQEIAQLEQEIAALEQKNAQLKYG [P11]
interaction score [1]: -2.71
interaction score [2]: 0.313
interaction score [3]: -2.69
interaction score [4]: -2.8
interaction score [5]: -0.75
interaction score [6]: -1.07
interaction score [7]: -2.59
interaction score [8]: -2.41
interaction score [9]: -2.7
interaction score [10]: -2.74
interaction score [11]: -2.75
interaction score [12]: -2.64
interaction score [13]: -2.83
interaction score [14]: -2.82
interaction score [15]: -2.69
interaction score [16]: -2.62
interaction score [17]: -2.59
interaction score [18]: -2.69
interaction score [19]: -2.25

interaction score [20]: -0.668
interaction score [21]: 0.674
interaction score [22]: 0.659
interaction score [23]: 0.173
interaction score [24]: -0.319
interaction score [25]: -0.267
interaction score [26]: 1.93
Binder: DKIAQLKQENAELEQEIAELEWKNAQLKQ [4H2696-bA]
